Measurements taken from the supplement of paper PMC9112550, “Optimization of the antimicrobial peptide Bac7 by deep mutational scanning” (BMC Biology, 2022).

These sequences were tested on Escherichia coli TOP10 (assay: shrunken log2 fold change of peptide-encoding DNA abundance (4.5 h post-induction vs induction); higher = less antimicrobial activity (less host growth inhibition)). Settings: time post-induction: 4.5 h; library: site-saturation at positions 5, 18, 19, 20.
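Further: peptides expressed intracellularly from a pBAD plasmid library in pooled LB shake-flask culture, induced with 0.3% L-arabinose, DNA abundance read by NGS, three biological replicates, DESeq2 with apeglm shrinkage.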

Row | Sequence | shrunken log2 fold change
1 | RRIRDRPPRLPRPRPRPRSMPRP | 0.211
2 | RRIRDRPPRLPRPRPRPRTDPRP | 0.0936
3 | RRIRDRPPRLPRPRPRPRVAPRP | 0.729
4 | RRIRDRPPRLPRPRPRPRWGPRP | 0.471
5 | RRIRDRPPRLPRPRPRPRWNPRP | 0.0976
6 | RRIRDRPPRLPRPRPRPRYAPRP | 0.215
7 | RRIRDRPPRLPRPRPRPSAKPRP | 0.23
8 | RRIRDRPPRLPRPRPRPSARPRP | 0.465
9 | RRIRDRPPRLPRPRPRPSCRPRP | -0.0363
10 | RRIRDRPPRLPRPRPRPSDMPRP | -0.307
11 | RRIRDRPPRLPRPRPRPSDSPRP | -0.0584
12 | RRIRDRPPRLPRPRPRPSENPRP | -0.0386
13 | RRIRDRPPRLPRPRPRPSGHPRP | 1.17
14 | RRIRDRPPRLPRPRPRPSGIPRP | -0.0212
15 | RRIRDRPPRLPRPRPRPSGVPRP | 0.119
16 | RRIRDRPPRLPRPRPRPSHIPRP | -1.15
17 | RRIRDRPPRLPRPRPRPSIIPRP | -0.266
18 | RRIRDRPPRLPRPRPRPSKGPRP | -0.0731
19 | RRIRDRPPRLPRPRPRPSLHPRP | 0.0986
20 | RRIRDRPPRLPRPRPRPSLVPRP | -0.0908
21 | RRIRDRPPRLPRPRPRPSMEPRP | 0.0308
22 | RRIRDRPPRLPRPRPRPSMVPRP | -0.24
23 | RRIRDRPPRLPRPRPRPSNCPRP | -0.576
24 | RRIRDRPPRLPRPRPRPSPRPRP | 0.00292
25 | RRIRDRPPRLPRPRPRPSQHPRP | -0.343

Row | Sequence | shrunken log2 fold change
26 | RRIRDRPPRLPRPRPRPSQRPRP | -0.0409
27 | RRIRDRPPRLPRPRPRPSRVPRP | 0.0593
28 | RRIRDRPPRLPRPRPRPSTHPRP | -0.247
29 | RRIRDRPPRLPRPRPRPSTLPRP | -0.267
30 | RRIRDRPPRLPRPRPRPSTVPRP | 0.154
31 | RRIRDRPPRLPRPRPRPSWHPRP | -0.0852
32 | RRIRDRPPRLPRPRPRPSYTPRP | -0.302
33 | RRIRDRPPRLPRPRPRPTCQPRP | 1.08
34 | RRIRDRPPRLPRPRPRPTDCPRP | 0.00372
35 | RRIRDRPPRLPRPRPRPTDFPRP | -0.0352
36 | RRIRDRPPRLPRPRPRPTDGPRP | -0.107
37 | RRIRDRPPRLPRPRPRPTDTPRP | 0.146
38 | RRIRDRPPRLPRPRPRPTFKPRP | -0.0434
39 | RRIRDRPPRLPRPRPRPTGCPRP | 0.247
40 | RRIRDRPPRLPRPRPRPTGDPRP | 0.209
41 | RRIRDRPPRLPRPRPRPTGGPRP | 0.166
42 | RRIRDRPPRLPRPRPRPTGLPRP | -0.000418
43 | RRIRDRPPRLPRPRPRPTGYPRP | 0.0485
44 | RRIRDRPPRLPRPRPRPTHQPRP | 0.0642
45 | RRIRDRPPRLPRPRPRPTIIPRP | -0.127
46 | RRIRDRPPRLPRPRPRPTIWPRP | -0.0201
47 | RRIRDRPPRLPRPRPRPTIYPRP | 0.0468
48 | RRIRDRPPRLPRPRPRPTKWPRP | 0.0286
49 | RRIRDRPPRLPRPRPRPTLNPRP | 0.171
50 | RRIRDRPPRLPRPRPRPTLVPRP | 0.196

Row | Sequence | shrunken log2 fold change
51 | RRIRDRPPRLPRPRPRPTMDPRP | -0.0444
52 | RRIRDRPPRLPRPRPRPTNQPRP | -0.00895
53 | RRIRDRPPRLPRPRPRPTNVPRP | -0.138
54 | RRIRDRPPRLPRPRPRPTPCPRP | 0.25
55 | RRIRDRPPRLPRPRPRPTPKPRP | 0.346
56 | RRIRDRPPRLPRPRPRPTPQPRP | 0.0786
57 | RRIRDRPPRLPRPRPRPTQPPRP | 0.0164
58 | RRIRDRPPRLPRPRPRPTREPRP | 1.46
59 | RRIRDRPPRLPRPRPRPTRMPRP | 0.154
60 | RRIRDRPPRLPRPRPRPTSFPRP | -0.0323
61 | RRIRDRPPRLPRPRPRPTSPPRP | -0.267
62 | RRIRDRPPRLPRPRPRPTTNPRP | 0.411
63 | RRIRDRPPRLPRPRPRPTWKPRP | 0.0856
64 | RRIRDRPPRLPRPRPRPTWWPRP | 0.433
65 | RRIRDRPPRLPRPRPRPTYHPRP | -0.0146
66 | RRIRDRPPRLPRPRPRPTYLPRP | 0.00451
67 | RRIRDRPPRLPRPRPRPTYMPRP | -0.248
68 | RRIRDRPPRLPRPRPRPVASPRP | 0.0264
69 | RRIRDRPPRLPRPRPRPVCAPRP | 1.12
70 | RRIRDRPPRLPRPRPRPVDRPRP | 0.358
71 | RRIRDRPPRLPRPRPRPVEIPRP | -0.0399
72 | RRIRDRPPRLPRPRPRPVESPRP | -0.373
73 | RRIRDRPPRLPRPRPRPVETPRP | 0.222
74 | RRIRDRPPRLPRPRPRPVGYPRP | 0.0934
75 | RRIRDRPPRLPRPRPRPVIEPRP | 0.662

Row | Sequence | shrunken log2 fold change
76 | RRIRDRPPRLPRPRPRPVIKPRP | 0.0149
77 | RRIRDRPPRLPRPRPRPVKDPRP | -0.173
78 | RRIRDRPPRLPRPRPRPVLMPRP | -0.134
79 | RRIRDRPPRLPRPRPRPVNMPRP | -0.296
80 | RRIRDRPPRLPRPRPRPVQPPRP | 0.196
81 | RRIRDRPPRLPRPRPRPVSQPRP | -0.0185
82 | RRIRDRPPRLPRPRPRPVTPPRP | 0.214
83 | RRIRDRPPRLPRPRPRPVVRPRP | 0.155
84 | RRIRDRPPRLPRPRPRPVWFPRP | 1.26
85 | RRIRDRPPRLPRPRPRPVWKPRP | -0.0168
86 | RRIRDRPPRLPRPRPRPVYKPRP | -0.601
87 | RRIRDRPPRLPRPRPRPWAGPRP | 0.0503
88 | RRIRDRPPRLPRPRPRPWAKPRP | -0.0135
89 | RRIRDRPPRLPRPRPRPWDNPRP | -0.00183
90 | RRIRDRPPRLPRPRPRPWFWPRP | -0.0329
91 | RRIRDRPPRLPRPRPRPWGDPRP | 0.13
92 | RRIRDRPPRLPRPRPRPWGGPRP | 0.422
93 | RRIRDRPPRLPRPRPRPWIEPRP | 0.135
94 | RRIRDRPPRLPRPRPRPWIPPRP | -0.0565
95 | RRIRDRPPRLPRPRPRPWLTPRP | -0.0223
96 | RRIRDRPPRLPRPRPRPWLYPRP | -0.68
97 | RRIRDRPPRLPRPRPRPWMFPRP | -0.0535
98 | RRIRDRPPRLPRPRPRPWNPPRP | -0.586
99 | RRIRDRPPRLPRPRPRPWPGPRP | 0.104
100 | RRIRDRPPRLPRPRPRPWPRPRP | 0.211

Row | Sequence | shrunken log2 fold change
101 | RRIRDRPPRLPRPRPRPWPWPRP | -0.0837
102 | RRIRDRPPRLPRPRPRPWPYPRP | -0.0943
103 | RRIRDRPPRLPRPRPRPWSAPRP | -0.347
104 | RRIRDRPPRLPRPRPRPWTYPRP | -0.834
105 | RRIRDRPPRLPRPRPRPWVEPRP | 0.105
106 | RRIRDRPPRLPRPRPRPWVMPRP | -0.167
107 | RRIRDRPPRLPRPRPRPWWCPRP | -0.00632
108 | RRIRDRPPRLPRPRPRPWWMPRP | 0.0169
109 | RRIRDRPPRLPRPRPRPWYVPRP | -0.726
110 | RRIRDRPPRLPRPRPRPYACPRP | 0.0334
111 | RRIRDRPPRLPRPRPRPYAHPRP | -0.31
112 | RRIRDRPPRLPRPRPRPYCMPRP | -0.28
113 | RRIRDRPPRLPRPRPRPYCRPRP | 0.0533
114 | RRIRDRPPRLPRPRPRPYDAPRP | -0.00235
115 | RRIRDRPPRLPRPRPRPYDPPRP | 0.0101
116 | RRIRDRPPRLPRPRPRPYHFPRP | -0.277
117 | RRIRDRPPRLPRPRPRPYHIPRP | -0.107
118 | RRIRDRPPRLPRPRPRPYHWPRP | 0.0299
119 | RRIRDRPPRLPRPRPRPYLLPRP | -0.179
120 | RRIRDRPPRLPRPRPRPYLQPRP | -0.0926
121 | RRIRDRPPRLPRPRPRPYMRPRP | -0.0888
122 | RRIRDRPPRLPRPRPRPYPCPRP | -0.112
123 | RRIRDRPPRLPRPRPRPYPGPRP | -0.0524
124 | RRIRDRPPRLPRPRPRPYPLPRP | 0.215
125 | RRIRDRPPRLPRPRPRPYQVPRP | -0.183

Row | Sequence | shrunken log2 fold change
126 | RRIRDRPPRLPRPRPRPYRAPRP | -0.118
127 | RRIRDRPPRLPRPRPRPYRVPRP | -0.0135
128 | RRIRDRPPRLPRPRPRPYTSPRP | 0.0448
129 | RRIRDRPPRLPRPRPRPYVEPRP | -0.125
130 | RRIRDRPPRLPRPRPRPYVWPRP | -0.579
131 | RRIRDRPPRLPRPRPRPYYAPRP | -0.201
132 | RRIRDRPPRLPRPRPRPYYFPRP | -0.209
133 | RRIRERPPRLPRPRPRPAARPRP | 0.226
134 | RRIRERPPRLPRPRPRPACDPRP | 0.0619
135 | RRIRERPPRLPRPRPRPACWPRP | 0.715
136 | RRIRERPPRLPRPRPRPADCPRP | 0.0519
137 | RRIRERPPRLPRPRPRPADDPRP | 0.000221
138 | RRIRERPPRLPRPRPRPADMPRP | -0.0494
139 | RRIRERPPRLPRPRPRPADQPRP | 0.0155
140 | RRIRERPPRLPRPRPRPADRPRP | -0.173
141 | RRIRERPPRLPRPRPRPAFDPRP | 0.107
142 | RRIRERPPRLPRPRPRPAFWPRP | 0.632
143 | RRIRERPPRLPRPRPRPAGFPRP | 0.67
144 | RRIRERPPRLPRPRPRPAHMPRP | -0.291
145 | RRIRERPPRLPRPRPRPAHTPRP | -0.0788
146 | RRIRERPPRLPRPRPRPAHYPRP | -0.148
147 | RRIRERPPRLPRPRPRPAIMPRP | -0.299
148 | RRIRERPPRLPRPRPRPAIYPRP | -0.051
149 | RRIRERPPRLPRPRPRPAKLPRP | -0.0209
150 | RRIRERPPRLPRPRPRPAKRPRP | 0.0249
